How the values were obtained:
[1] = target: AMC011 SOSIP-I53-50A (HIV-1 (AMC011, Clade B)); assay: not stated; purified fusion proteins; result shown in Supplementary Fig. 2d, e (not shown)
[2] = target: BG505 SOSIP-I53-50A.1NT1 (HIV-1 (BG505)) (UniProt Q2N0S6); assay: negative-stain EM
[3] = target: BG505 SOSIP-I53-50A.1NT1 (HIV-1 (BG505)) (UniProt Q2N0S6); assay: SEC; SOSIP fusion protein after PGT145 purification, Superose 6 Increase, Assembly Buffer II (25 mM Tris, 500 mM NaCl, 5% glycerol pH 8.2); trimer and aggregate peaks
[4] = target: ConM SOSIP-I53-50A (HIV-1 (consensus of Group M)); assay: not stated; purified fusion proteins; result shown in Supplementary Fig. 2d, e (not shown)
[5] = target: ZM197M SOSIP-I53-50A (HIV-1 (ZM197M, Clade C)); assay: as above

AMC011 SOSIP-I53-50A (designed binder) gave a stoichiometry N [1] of 3.
Substance “BG505 SOSIP-I53-50A.1NT1 (from UniProt Q2N0S6) (designed binder)” has a stoichiometry N [2] of 3 and a stoichiometry N [3] of 3.
ConM SOSIP-I53-50A (designed binder) showed a stoichiometry N [4] of 3.
Substance ZM197M SOSIP-I53-50A (designed binder) has a stoichiometry N [5] of 3.
